Assay results reported in doi:10.1101/2024.07.23.604771.

Target: FLAG-2xStrep-PNO1 (UniProt Q9NRX1)
Assay: co-IP

Sequence of UniProt Q9NRX1 (Q9NRX1 whole entry): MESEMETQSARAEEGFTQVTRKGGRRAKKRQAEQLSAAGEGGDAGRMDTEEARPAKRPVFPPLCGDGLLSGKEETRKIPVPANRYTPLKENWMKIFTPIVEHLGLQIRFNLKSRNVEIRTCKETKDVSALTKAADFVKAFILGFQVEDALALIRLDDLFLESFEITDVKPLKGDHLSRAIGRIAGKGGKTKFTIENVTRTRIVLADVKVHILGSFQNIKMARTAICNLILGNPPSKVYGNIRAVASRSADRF

fold increase of association, lytic against latent cells: 3 fold
Substance: EMG1 (from UniProt Q92979 1-244) (natural protein)
